Laboratory results reported in the Human Domainome abundance scans (Beltran et al. 2025).

B1: Protein S100-G, residues 1 to 79; numbered along this chain, P02633 (parent)
chain: MSAKKSPEELKGIFEKYAAKEGDPNQLSKEELKLLLQTEFPSLLKGPSTLDELFEELDKNGDGEVSFEEFQVLVKKISQ
B2: WW domain-containing transcription regulator protein 1, residues 116 to 162; numbered along this chain, Q9GZV5 (parent)
chain: QSYDVTDELPLPPGWEMTFTATGQRYFLNHIEKITTWQDPRKAMNQP

Variants of: B1
Assay: abundance fitness (aPCA) (normalised: wild type 0, dead -1); higher = more abundant; growth selection in yeast, the domain comes from the species named
Settings: Bos taurus

Abundance fitness, by site and new letter:
E64: C 0.032 | D 0.049 | F -0.055 | G 0.059 | H 0.048 | I -0.101 | K -0.028 | L -0.055 | M 0.035 | N -0.026 | P 0.008 | Q 0.081 | S 0.002 | T 0.073 | V -0.065 | W 0.155 | Y -0.049
V65: A -0.091 | C -0.05 | D -0.86 | F -0.002 | G -0.37 | I 0.007 | K -0.171 | L 0.044 | M 0.025 | N -0.2 | P -0.34 | Q -0.165 | R -0.165 | S -0.109 | T 0.037 | W -0.018
S66: A -0.009 | C 0.053 | E 0.048 | F -0.124 | G 0.033 | H -0.146 | I -0.101 | K -0.066 | L -0.137 | M 0.008 | N 0.014 | P -0.107 | Q -0.101 | R -0.036 | T 0.029 | V 0 | W -0.382 | Y -0.086
F67: A -0.123 | C -0.05 | D -0.294 | E -0.063 | G -0.175 | H -0.12 | I -0.161 | K -0.172 | L -0.059 | M -0.176 | N -0.131 | P -0.257 | Q 0.04 | R -0.141 | S -0.097 | T -0.201 | V -0.059 | W -0.038 | Y -0.022
E68: A -0.016 | C -0.073 | D -0.005 | F -0.062 | G -0.06 | H -0.001 | K 0.018 | L -0.098 | M -0.044 | N -0.047 | P 0.009 | Q -0.099 | R -0.046 | T -0.012 | Y -0.216
E69: A -0.04 | C -0.074 | D 0.009 | F -0.215 | G 0.06 | H -0.007 | I -0.055 | K -0.016 | L -0.006 | M 0.022 | N -0.215 | Q 0.016 | R -0.056 | S -0.07 | T -0.013 | V -0.021 | W -0.253
F70: A -0.157 | C -0.169 | D -1.14 | E -1.25 | G -0.73 | H -1 | I -0.534 | K -0.965 | L -0.157 | M -0.105 | N -1.25 | P -0.94 | Q -1.01 | R -0.797 | S -0.531 | T -0.162 | V -0.165 | W -0.115 | Y -0.039
Q71: A -0.031 | C -0.101 | D -0.038 | E 0.068 | F -0.107 | G 0.009 | H -0.029 | I -0.054 | K -0.074 | L 0.031 | M -0.032 | N -0.06 | P -0.25 | R -0.091 | S 0.017 | T -0.031 | V -0.058 | W -0.244 | Y -0.168
V72: A -0.034 | D -0.068 | E -0.092 | F -0.032 | G 0.038 | H -0.029 | I -0.022 | K 0.022 | L -0.004 | M -0.035 | N -0.012 | P -0.018 | Q -0.059 | S -0.043 | T 0.053 | Y -0.059
L73: A -0.112 | C 0.065 | D -0.668 | E -0.247 | F -0.124 | G -0.041 | H -0.151 | I -0.016 | K -0.413 | M -0.05 | N -0.273 | P -0.797 | Q -0.28 | R -0.473 | S -0.187 | T -0.071 | V -0.017 | W 0.015 | Y -0.05
V74: C -0.069 | D -0.044 | E -0.004 | G -0.023 | I 0.066 | K 0.041 | L -0.018 | M 0.016 | N -0.001 | Q 0.102 | R -0.245 | S 0 | T 0.024 | W 0.063
K75: C -0.148 | D -0.063 | F -0.151 | G -0.022 | H 0.01 | I -0.167 | L -0.045 | M -0.098 | P -0.186 | Q -0.11 | R -0.074 | S -0.023 | T -0.073 | V -0.074 | W -0.125 | Y -0.173
K76: C -0.29 | D -0.127 | E -0.126 | G 0.011 | H -0.153 | I -0.131 | L -0.247 | M -0.218 | N -0.196 | P -0.238 | Q -0.056 | R -0.094 | S -0.119 | T -0.175 | V -0.191 | W -0.293 | Y -0.325
I77: A -0.169 | C -0.136 | D -0.17 | E -0.142 | F 0.051 | G -0.111 | H -0.155 | K -0.148 | L -0.073 | M -0.143 | N -0.025 | Q -0.092 | R -0.179 | S -0.165 | T -0.14 | V -0.158 | W -0.176 | Y -0.104
S78: A 0.245 | F -0.25 | G -0.329 | L -0.188 | M -0.049 | P 0.258 | Y -1.23
Q79: A 0.008 | C -0.032 | D -0.191 | E 0.272 | G 0.074 | H -0.048 | I -0.346 | K 0.046 | L -0.017 | M 0.026 | N -0.154 | P 0.254 | R 0.16 | S 0.041 | T 0.085 | V -0.086 | W -0.086 | Y -0.148

Variants of: B2
Assay: as above
Settings: Homo sapiens

Abundance fitness: each site, then its substitutions
D7: V -0.207
T6: R -0.086 | M -0.008
Q24: P -0.846 | D 0.017
W37: L -0.296
W15: R -0.625 | M -0.695
E32: L 0.201
P47: S -0.125 | G -0.677
P12: H -0.907
K33: I -1.01 | L -0.558
A43: D 0.071 | V -0.025
P13: Q 0.026 | V -0.058 | D -0.012 | L -0.124
M17: I -0.09 | E 0.017 | V -0.05
M44: V -0.045 | K -0.033 | Q -0.014 | S -0.089
N45: L -0.118 | Y 0.039 | H -0.09 | Q -0.223
V5: L -0.103 | G -0.194 | C -0.126
T22: A -0.092 | P -0.557
N29: I -0.949 | D -0.42
A21: C -0.167
L11: I -0.337 | R -0.847 | K -0.746
D4: G -0.198
G23: S -0.565
H30: A -0.152
L28: F -0.335
F19: Q -0.121
Q38: A -0.103 | H -0.096
G14: F -0.534 | Y -0.421
L9: S -0.003
S2: H 0.149 | N 0.361
Q1: H -0.704 | D -0.005
T35: P -0.899 | Y -0.413 | E -0.382
F27: P -0.946
E16: G -0.22
T36: G -0.775
P10: I -0.174 | C -0.374
E8: S -0.071 | K -0.005
I34: Q -0.158
Q46: M -0.098
P40: W -1
